Test results from US20220048996A1 (F STAR BETA, published 2022).
Residue numbers refer to the chain shown, from its start.

T1: human OX40 expressed on DO11.10 cells (DO11.10-hOX40) (human, UniProt P43489 29-277)
T1 construct: Also used here for OX40 on primary human T cells in the functional rows; also called human OX40 receptor; OX40 on human T cells
T1 sequence: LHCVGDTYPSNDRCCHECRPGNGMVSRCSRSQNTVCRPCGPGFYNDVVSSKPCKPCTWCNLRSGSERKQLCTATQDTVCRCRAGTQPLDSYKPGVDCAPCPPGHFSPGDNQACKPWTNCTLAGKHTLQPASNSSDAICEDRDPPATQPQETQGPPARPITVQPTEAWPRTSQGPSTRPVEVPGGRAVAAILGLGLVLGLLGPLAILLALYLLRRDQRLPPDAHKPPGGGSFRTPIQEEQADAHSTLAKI

T2: cynomolgus OX40 expressed on DO11.10 cells (DO11.10-cOX40) (cynomolgus, UniProt P43489 29-277 (human entry))
T2 chain: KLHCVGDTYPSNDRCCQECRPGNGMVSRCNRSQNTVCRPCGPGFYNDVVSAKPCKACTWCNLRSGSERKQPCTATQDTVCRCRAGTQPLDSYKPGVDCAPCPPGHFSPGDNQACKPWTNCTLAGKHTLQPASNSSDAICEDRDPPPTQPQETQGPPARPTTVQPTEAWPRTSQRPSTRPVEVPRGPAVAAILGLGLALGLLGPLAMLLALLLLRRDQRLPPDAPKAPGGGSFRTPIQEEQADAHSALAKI

T3: cynomolgus CD137 expressed on DO11.10 cells (DO11.10-cCD137) (cynomolgus monkey, UniProt Q07011 24-255 (human entry))
T3 chain: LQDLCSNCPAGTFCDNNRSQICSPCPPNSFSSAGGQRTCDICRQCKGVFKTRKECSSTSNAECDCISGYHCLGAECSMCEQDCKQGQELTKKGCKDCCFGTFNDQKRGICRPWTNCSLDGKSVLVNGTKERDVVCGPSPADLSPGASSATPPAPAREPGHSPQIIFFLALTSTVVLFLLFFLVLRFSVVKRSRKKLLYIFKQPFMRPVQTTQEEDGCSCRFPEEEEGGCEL

T4: hOX40-mFc (human)
T4 construct: Dimeric; also called human OX40-mFc
T4 chain: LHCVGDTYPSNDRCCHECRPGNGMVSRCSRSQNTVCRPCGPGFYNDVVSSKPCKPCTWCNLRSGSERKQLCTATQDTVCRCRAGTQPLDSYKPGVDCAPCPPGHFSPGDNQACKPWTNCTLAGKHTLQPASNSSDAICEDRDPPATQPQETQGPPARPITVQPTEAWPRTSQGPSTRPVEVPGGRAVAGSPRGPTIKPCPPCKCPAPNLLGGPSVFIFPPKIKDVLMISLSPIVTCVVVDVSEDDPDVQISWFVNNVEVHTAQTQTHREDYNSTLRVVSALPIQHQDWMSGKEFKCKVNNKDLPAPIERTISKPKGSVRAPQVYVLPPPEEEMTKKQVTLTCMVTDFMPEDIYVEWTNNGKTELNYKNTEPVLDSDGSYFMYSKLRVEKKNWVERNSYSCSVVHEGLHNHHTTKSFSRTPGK

T5: cOX40-mFc (cynomolgus)
T5 construct: Dimeric; also called cyno OX40-mFc
T5 chain: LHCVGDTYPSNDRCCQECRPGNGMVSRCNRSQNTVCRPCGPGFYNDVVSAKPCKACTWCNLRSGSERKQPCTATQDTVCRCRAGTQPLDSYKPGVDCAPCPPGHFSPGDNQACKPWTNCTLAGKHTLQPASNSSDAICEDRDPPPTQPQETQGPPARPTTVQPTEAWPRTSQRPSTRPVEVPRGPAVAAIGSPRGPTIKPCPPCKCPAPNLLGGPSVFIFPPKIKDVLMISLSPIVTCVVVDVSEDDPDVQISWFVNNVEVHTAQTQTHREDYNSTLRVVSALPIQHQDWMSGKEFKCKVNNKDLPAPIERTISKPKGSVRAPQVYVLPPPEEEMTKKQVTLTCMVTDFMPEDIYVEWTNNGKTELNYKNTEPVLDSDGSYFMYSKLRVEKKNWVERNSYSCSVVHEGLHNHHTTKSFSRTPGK

T6: cCD137-mFc-Avi (cynomolgus monkey)
T6 construct: 139 used; also called cyno CD137-mFc-Avi; recombinant cyno CD137
T6 chain: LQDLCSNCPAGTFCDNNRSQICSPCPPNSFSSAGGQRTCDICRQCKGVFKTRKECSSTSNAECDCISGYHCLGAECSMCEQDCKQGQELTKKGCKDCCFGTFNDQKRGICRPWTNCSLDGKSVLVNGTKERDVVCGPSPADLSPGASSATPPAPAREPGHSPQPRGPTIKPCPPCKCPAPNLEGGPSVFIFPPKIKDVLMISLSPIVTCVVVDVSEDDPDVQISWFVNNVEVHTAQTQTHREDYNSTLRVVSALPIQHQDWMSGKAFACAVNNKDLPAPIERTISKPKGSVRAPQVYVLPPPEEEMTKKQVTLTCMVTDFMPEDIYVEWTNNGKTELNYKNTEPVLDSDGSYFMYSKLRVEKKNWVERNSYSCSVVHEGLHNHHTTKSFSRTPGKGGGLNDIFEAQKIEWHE

B1: FS20-22-49AA/FS30-5-37 (bispecific antibody, human IgG1, kappa, L234A L235A, V domains shown)
VH: EVQLLESGGGLVQPGGSLRLNCAASGFTFSSYAMSWVRQAPGKGLEWVSAISGSGGSTYYADSVKGRFTISRDNSKNTLYLQMNSLRAEDTAVYYCARSYDKYWGSSIYSGLDYWGQGTLVTVSS
VL: EIVLTQSPGTLSLSPGERATLSCRASQSVSSSYLAWYQQKPGQAPRLLIYGASSRATGIPDRFSGSGSGTDFTLTISRLEPEDFAVYYCQQYYSYYPVTFGQGTKVEIKR
notes: IgG1 with LALA; also called OX40/CD137 mAb^2
B2: FS20-22-49AA/4420 (antibody, human IgG1, kappa, L234A L235A)
heavy: EVKLDETGGGLVQPGRPMKLSCVASGFTFSDYWMNWVRQSPEKGLEWVAQIRNKPYNYETYYSDSVKGRFTISRDDSKSSVYLQMNNLRVEDMGIYYCTGSYYGMDYWGQGTSVTVSSASTKGPSVFPLAPSSKSTSGGTAALGCLVKDYFPEPVTVSWNSGALTSGVHTFPAVLQSSGLYSLSSVVTVPSSSLGTQTYICNVNHKPSNTKVDKKVEPKSCDKTHTCPPCPAPEAAGGPSVFLFPPKPKDTLMISRTPEVTCVVVDVSHEDPEVKFNWYVDGVEVHNAKTKPREEQYNSTYRVVSVLTVLHQDWLNGKEYKCKVSNKALPAPIEKTISKAKGQPREPQVYTLPPSRDEYWDQEVSLTCLVKGFYPSDIAVEWESNGDEQFAYKTTPPVLDSDGSFFLYSKLTVDQYRWNPADYFSCSVMHEALHNHYTQKSLSLSPG
light: DVVMTQTPLSLPVSLGDQASISCRSSQSLVHSNGNTYLRWYLQKPGQSPKVLIYKVSNRFSGVPDRFSGSGSGTDFTLKISRVEAEDLGVYFCSQSTHVPWTFGGGTKLEIKRTVAAPSVFIFPPSDEQLKSGTASVVCLLNNFYPREAKVQWKVDNALQSGNSQESVTEQDSKDSTYSLSSTLTLSKADYEKHKVYACEVTHQGLSSPVTKSFNRGEC
notes: also called OX40/FITC mock mAb^2; FS20-22-49 Fcab in mock (4420 LALA) mAb^2 format
B3: FS20-22-49AA/FS30-10-3 (bispecific antibody, human IgG1, kappa, L234A L235A, V domains shown)
VH: EVQLLESGGGLVQPGGSLRLSCAASGFTFSSYDMSWVRQAPGKGLEWVSDIDPTGSKTDYADSVKGRFTISRDNSKNTLYLQMNSLRAEDTAVYYCARDLNVYGFDYWGQGTLVTVSS
VL: EIVLTQSPGTLSLSPGERATLSCRASQSVSSSYLAWYQQKPGQAPRLLIYGASSRATGIPDRFSGSGSGTDFTLTISRLEPEDFAVYYCQQSYSYPVTFGQGTKVEIKR
notes: as for B1
B4: G1AA/FS30-10-16 (antibody, human IgG1, kappa, L234A L235A, V domains shown)
VH: B3 VH with N101L
VL: B3 VL
B5: FS20-22-49AA/FS30-10-12 (bispecific antibody, human IgG1, kappa, L234A L235A, V domains shown)
VH: B3 VH with N101T
VL: B3 VL
notes: as for B1

Columns and labels:
[1] = target: T1, human OX40 expressed on DO11.10 cells …; experiment: flow cytometry on DO11.10 cells expressing the target
Experimental: (§1) 50 μl of the antibody dilutions were added to the wells containing cells (final volume 100 μl) and incubated at 4° C. for 1 hour. […] The plates were washed and resuspended in 100 μl of PBS containing DAPI (Biotium, cat no 40043) at 1 μg/ml. The plates were analysed using a Canto II flow cytometer (BD Bioscience) and the data analysed using FlowJo. Dead cells were identified by their higher fluorescence on the UV (405 nm/450/50) channel and excluded from analysis. […] The GMFI data was fit using log (agonist) vs response (three parameters) in Graph Pad Prism Software to generate EC₅₀ values.

[2] = target: T2, cynomolgus OX40 expressed on DO11.10 …; experiment: as above
Experimental: as §1

[3] = target: T3, cynomolgus CD137 expressed on DO11.10 …; experiment: as above
Experimental: as §1

[4] = target: T7, human CD137 expressed on DO11.10 cells (DO11.10-hCD137) (human, UniProt Q07011 24-255); experiment: as above
T7 construct: also called CD137 on human T cells
Experimental: as §1

hOX40-mFc = target: T4, hOX40-mFc; experiment: SPR, antibody captured via anti-human Fab, dimeric antigen flowed, 1:1 fit
Experimental: (§2) For OX40 affinity determination a Biacore CM5 chip was coated with anti-human Fab using a Human Fab Capture Kit (GE Healthcare 28958325) according to manufacturer's conditions, to a surface density of approximately 8000 RU. […] The association time was 2 min and the dissociation time was 8 min. Running buffer was HBS-EP. Flow cells were regenerated by injecting glycine-HCl at pH 2.1 at a flow rate of 30 μl/min for 30 seconds.
(§3) The binding kinetics were fit with a 1:1 Langmuir model to generate binding association (kₐ) and dissociation (kd) rates. Equilibrium binding constants (KD) were calculated by dividing the dissociation rate by the association rate for each sample. Data analysis was performed with BiaEvaluation software version 3.2.

cOX40-mFc = target: T5, cOX40-mFc; experiment: as above
Experimental: as §2, §3

[5] = target: T7, human CD137 expressed on DO11.10 cells …; experiment: cell-based or functional assay
Target sequence in this assay (Q07011 24-255): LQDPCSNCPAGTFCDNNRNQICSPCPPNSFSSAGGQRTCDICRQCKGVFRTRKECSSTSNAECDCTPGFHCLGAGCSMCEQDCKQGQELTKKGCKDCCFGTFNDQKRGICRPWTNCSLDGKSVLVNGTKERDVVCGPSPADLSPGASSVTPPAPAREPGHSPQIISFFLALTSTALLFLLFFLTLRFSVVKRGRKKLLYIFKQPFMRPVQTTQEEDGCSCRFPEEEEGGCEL

hCD137-mFc-Avi = target: T8, hCD137-mFc-Avi (human); experiment: SPR, antibody captured via anti-human Fc, dimeric antigen flowed, 1:1 fit
T8 construct: Dimer; a biotinylated version was used where the text says so; also called human CD137-mFc-Avi; hCD137-mFc-Avi-Bio
Experimental: (§4) For CD137 affinity determination, a Biacore CM5 chip (GE Healthcare) was coated with anti-human Fc using a Human Antibody Capture Kit (GE Healthcare) according to manufacturer's conditions, to a surface density of approximately 4000 RU. […] Human or cynomolgus CD137 (hCD137-mFc-Avi or cCD137-mFc-Avi) was flowed over at a range of concentrations in a three-fold dilution series starting at 200 nM, at a flow rate of 70 μl/min. The association time was 2 min and the dissociation time was 8 min. Running buffer was HBS-EP (GE Healthcare BR100188). Flow cells were regenerated by injecting 3M magnesium chloride at a flow rate of 30 μl/min for 30 seconds.
as §3

cCD137-mFc-Avi = target: T6, cCD137-mFc-Avi; experiment: as above
Experimental: as §4, §3

[6] = target: T1, human OX40 expressed on DO11.10 cells …; experiment: cell-based or functional assay
[7] = target: T7, human CD137 expressed on DO11.10 cells …; experiment: cell-based or functional assay; remark: listed apart in the source

| Binder | EC50 [1] [pM] | EC50 [2] [pM] | EC50 [3] [pM] | EC50 [4] [pM] | Kd (hOX40-mFc) [pM] | Kd (cOX40-mFc) [pM] | EC50 of mIL-2 release, DO11.10-hCD137 assay, crosslinked [5] [pM] | Emax of mIL-2 release, DO11.10-hCD137 assay, crosslinked [5] [pg/mL] | Kd (hCD137-mFc-Avi) [pM] | Kd (cCD137-mFc-Avi) [pM] | SEA assay (PBMC), hIL-2 max response, crosslinked [6] [pg/mL] | SEA assay (PBMC), hIL-2 max response, no crosslinker [6] [pg/mL] | SEA assay (PBMC), hIL-2 release EC50, crosslinked [6] [pM] | SEA assay (PBMC), hIL-2 release EC50, no crosslinker [6] [pM] | binding result [3] | binding result [4] | CD8+ T cell activation assay, hIL-2 release EC50, crosslinked [7] [pM] |
| --- | --- | --- | --- | --- | --- | --- | --- | --- | --- | --- | --- | --- | --- | --- | --- | --- | --- |
| B1 | 201 | 355 | 110 | 258 | 385 | 1630 | 13400 | 18100 | 3850 | 6420 | 30700 | 29200 | 500 | 510 | – | – | – |
| B2 | – | – | – | – | – | – | – | – | – | – | – | – | – | – | no binding | no binding | – |
| B3 | 175 | 394 | 68.2 | 120 | 285 | 1110 | 6100 | 17000 | 342 | 318 | 33900 | 34900 | 380 | 290 | – | – | – |
| B4 | – | – | – | – | – | – | – | – | – | – | – | – | – | – | – | – | 3880 |
| B5 | 152 | 368 | 107 | 290 | 370 | 1020 | 9500 | 17200 | 255 | 7240 | 23700 | 24900 | 2330 | 1360 | – | – | – |
